# Measured values from patent publication US20210388087A1 (Chugai, published 2021).
# Molecular target: T1, CD3 epsilon homodimer protein (UniProt P07766 23-126)
# T1 construct: immobilized on Sensor chip CM4 by amine coupling; also called CD3 (CD3 epsilon)
# Assay: SPR (Biacore T200), CD3 epsilon homodimer on CM4 chip, one-arm antibody as analyte, 25 C;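 also: homodimer attached to the sensor surface via amine coupling, HBS-EP+ used as running buffer during binding runs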
# T1 sequence (P07766 23-126): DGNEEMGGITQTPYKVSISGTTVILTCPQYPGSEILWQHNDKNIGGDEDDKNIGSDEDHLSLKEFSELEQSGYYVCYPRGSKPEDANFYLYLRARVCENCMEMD
row,Binder,ratio of amounts bound (altered form / CE115HA000)
1,"CE115HA000 G100bE one-arm antibody (antibody, human IgG1, kappa, L234A L235A, N297A, name in Kabat numbering) heavy: QVQLVESGGGVVQPGRSLRLSCAASGFTFSNAWMHWVRQAPGKGLEWVAQIKAKSNNYATYYAESVKGRFTISRDDSKNSLYLQMNSLKTEDTAVYYCRYVHYGAYYEVDAWGQGTTVTVSSASTKGPSVFPLAPSSKSTSGGTAALGCLVKDYFPEPVTVSWNSGALTSGVHTFPAVLQSSGLYSLSSVVTVPSSSLGTQTYICNVNHKPSNTKVDKKVEPKSCDKTHTCPPCPAPEAAGGPSVFLFPPKPKDTLMISRTPEVTCVVVDVSHEDPEVKFNWYVDGVEVHNAKTKPREEQYASTYRVVSVLTVLHQDWLNGKEYKCKVSNKALPAPIEKTISKAKGQPREPQVYTLPPSRCELTKNQVSLSCAVKGFYPSDIAVEWESNGQPENNYKTTPPVLDSDGSFFLVSKLTVDKSRWQQGNVFSCSVMHEALHNHYTQKSLSLSPDYKDDDDK EPKSSDKTHTCPPCPAPELLGGPSVFLFPPKPKDTLMISRTPEVTCVVVDVSHEDPEVKFNWYVDGVEVHNAKTKPREEQYNSTYRVVSVLTVLHQDWLNGKEYKCKVSNKALPAPIEKTISKAKGQPREPQVCTLPPSRDELTKNQVSLWCLVKGFYPSDIAVEWESNGQPENNYKTTPPVLDSDGSFFLYSKLTVDKSRWQQGNVFSCSVMHEALHNRYTQKSLSLSP light: DIVMTQSPLSLPVTPGEPASISCRSSQSLVHSNRNTYLHWYQQKPGQAPRLLIYKVSNRFSGVPDRFSGSGSGTDFTLKISRVEAEDVGVYYCGQGTQVPYTFGQGTKLEIKRTVAAPSVFIFPPSDEQLKSGTASVVCLLNNFYPREAKVQWKVDNALQSGNSQESVTEQDSKDSTYSLSSTLTLSKADYEKHKVYACEVTHQGLSSPVTKSFNRGEC",0.26
2,"CE115HA000 G100bL one-arm antibody (antibody, human IgG1, kappa, L234A L235A, N297A, name in Kabat numbering) heavy: QVQLVESGGGVVQPGRSLRLSCAASGFTFSNAWMHWVRQAPGKGLEWVAQIKAKSNNYATYYAESVKGRFTISRDDSKNSLYLQMNSLKTEDTAVYYCRYVHYGAYYLVDAWGQGTTVTVSSASTKGPSVFPLAPSSKSTSGGTAALGCLVKDYFPEPVTVSWNSGALTSGVHTFPAVLQSSGLYSLSSVVTVPSSSLGTQTYICNVNHKPSNTKVDKKVEPKSCDKTHTCPPCPAPEAAGGPSVFLFPPKPKDTLMISRTPEVTCVVVDVSHEDPEVKFNWYVDGVEVHNAKTKPREEQYASTYRVVSVLTVLHQDWLNGKEYKCKVSNKALPAPIEKTISKAKGQPREPQVYTLPPSRCELTKNQVSLSCAVKGFYPSDIAVEWESNGQPENNYKTTPPVLDSDGSFFLVSKLTVDKSRWQQGNVFSCSVMHEALHNHYTQKSLSLSPDYKDDDDK EPKSSDKTHTCPPCPAPELLGGPSVFLFPPKPKDTLMISRTPEVTCVVVDVSHEDPEVKFNWYVDGVEVHNAKTKPREEQYNSTYRVVSVLTVLHQDWLNGKEYKCKVSNKALPAPIEKTISKAKGQPREPQVCTLPPSRDELTKNQVSLWCLVKGFYPSDIAVEWESNGQPENNYKTTPPVLDSDGSFFLYSKLTVDKSRWQQGNVFSCSVMHEALHNRYTQKSLSLSP light: DIVMTQSPLSLPVTPGEPASISCRSSQSLVHSNRNTYLHWYQQKPGQAPRLLIYKVSNRFSGVPDRFSGSGSGTDFTLKISRVEAEDVGVYYCGQGTQVPYTFGQGTKLEIKRTVAAPSVFIFPPSDEQLKSGTASVVCLLNNFYPREAKVQWKVDNALQSGNSQESVTEQDSKDSTYSLSSTLTLSKADYEKHKVYACEVTHQGLSSPVTKSFNRGEC",0.27
3,"CE115HA000 G100bF one-arm antibody (antibody, human IgG1, kappa, L234A L235A, N297A, name in Kabat numbering) heavy: QVQLVESGGGVVQPGRSLRLSCAASGFTFSNAWMHWVRQAPGKGLEWVAQIKAKSNNYATYYAESVKGRFTISRDDSKNSLYLQMNSLKTEDTAVYYCRYVHYGAYYFVDAWGQGTTVTVSSASTKGPSVFPLAPSSKSTSGGTAALGCLVKDYFPEPVTVSWNSGALTSGVHTFPAVLQSSGLYSLSSVVTVPSSSLGTQTYICNVNHKPSNTKVDKKVEPKSCDKTHTCPPCPAPEAAGGPSVFLFPPKPKDTLMISRTPEVTCVVVDVSHEDPEVKFNWYVDGVEVHNAKTKPREEQYASTYRVVSVLTVLHQDWLNGKEYKCKVSNKALPAPIEKTISKAKGQPREPQVYTLPPSRCELTKNQVSLSCAVKGFYPSDIAVEWESNGQPENNYKTTPPVLDSDGSFFLVSKLTVDKSRWQQGNVFSCSVMHEALHNHYTQKSLSLSPDYKDDDDK EPKSSDKTHTCPPCPAPELLGGPSVFLFPPKPKDTLMISRTPEVTCVVVDVSHEDPEVKFNWYVDGVEVHNAKTKPREEQYNSTYRVVSVLTVLHQDWLNGKEYKCKVSNKALPAPIEKTISKAKGQPREPQVCTLPPSRDELTKNQVSLWCLVKGFYPSDIAVEWESNGQPENNYKTTPPVLDSDGSFFLYSKLTVDKSRWQQGNVFSCSVMHEALHNRYTQKSLSLSP light: DIVMTQSPLSLPVTPGEPASISCRSSQSLVHSNRNTYLHWYQQKPGQAPRLLIYKVSNRFSGVPDRFSGSGSGTDFTLKISRVEAEDVGVYYCGQGTQVPYTFGQGTKLEIKRTVAAPSVFIFPPSDEQLKSGTASVVCLLNNFYPREAKVQWKVDNALQSGNSQESVTEQDSKDSTYSLSSTLTLSKADYEKHKVYACEVTHQGLSSPVTKSFNRGEC",0.3

# Now from value to binder:
row,ratio of amounts bound (altered form / CE115HA000),Binder
1,0.2,"CE115HA000 H35D one-arm antibody (antibody, human IgG1, kappa, L234A L235A, N297A, name in Kabat numbering) heavy: QVQLVESGGGVVQPGRSLRLSCAASGFTFSNAWMDWVRQAPGKGLEWVAQIKAKSNNYATYYAESVKGRFTISRDDSKNSLYLQMNSLKTEDTAVYYCRYVHYGAYYGVDAWGQGTTVTVSSASTKGPSVFPLAPSSKSTSGGTAALGCLVKDYFPEPVTVSWNSGALTSGVHTFPAVLQSSGLYSLSSVVTVPSSSLGTQTYICNVNHKPSNTKVDKKVEPKSCDKTHTCPPCPAPEAAGGPSVFLFPPKPKDTLMISRTPEVTCVVVDVSHEDPEVKFNWYVDGVEVHNAKTKPREEQYASTYRVVSVLTVLHQDWLNGKEYKCKVSNKALPAPIEKTISKAKGQPREPQVYTLPPSRCELTKNQVSLSCAVKGFYPSDIAVEWESNGQPENNYKTTPPVLDSDGSFFLVSKLTVDKSRWQQGNVFSCSVMHEALHNHYTQKSLSLSPDYKDDDDK EPKSSDKTHTCPPCPAPELLGGPSVFLFPPKPKDTLMISRTPEVTCVVVDVSHEDPEVKFNWYVDGVEVHNAKTKPREEQYNSTYRVVSVLTVLHQDWLNGKEYKCKVSNKALPAPIEKTISKAKGQPREPQVCTLPPSRDELTKNQVSLWCLVKGFYPSDIAVEWESNGQPENNYKTTPPVLDSDGSFFLYSKLTVDKSRWQQGNVFSCSVMHEALHNRYTQKSLSLSP light: DIVMTQSPLSLPVTPGEPASISCRSSQSLVHSNRNTYLHWYQQKPGQAPRLLIYKVSNRFSGVPDRFSGSGSGTDFTLKISRVEAEDVGVYYCGQGTQVPYTFGQGTKLEIKRTVAAPSVFIFPPSDEQLKSGTASVVCLLNNFYPREAKVQWKVDNALQSGNSQESVTEQDSKDSTYSLSSTLTLSKADYEKHKVYACEVTHQGLSSPVTKSFNRGEC"
2,0.52,"CE115HA000 G100bS one-arm antibody (antibody, human IgG1, kappa, L234A L235A, N297A, name in Kabat numbering) heavy: QVQLVESGGGVVQPGRSLRLSCAASGFTFSNAWMHWVRQAPGKGLEWVAQIKAKSNNYATYYAESVKGRFTISRDDSKNSLYLQMNSLKTEDTAVYYCRYVHYGAYYSVDAWGQGTTVTVSSASTKGPSVFPLAPSSKSTSGGTAALGCLVKDYFPEPVTVSWNSGALTSGVHTFPAVLQSSGLYSLSSVVTVPSSSLGTQTYICNVNHKPSNTKVDKKVEPKSCDKTHTCPPCPAPEAAGGPSVFLFPPKPKDTLMISRTPEVTCVVVDVSHEDPEVKFNWYVDGVEVHNAKTKPREEQYASTYRVVSVLTVLHQDWLNGKEYKCKVSNKALPAPIEKTISKAKGQPREPQVYTLPPSRCELTKNQVSLSCAVKGFYPSDIAVEWESNGQPENNYKTTPPVLDSDGSFFLVSKLTVDKSRWQQGNVFSCSVMHEALHNHYTQKSLSLSPDYKDDDDK EPKSSDKTHTCPPCPAPELLGGPSVFLFPPKPKDTLMISRTPEVTCVVVDVSHEDPEVKFNWYVDGVEVHNAKTKPREEQYNSTYRVVSVLTVLHQDWLNGKEYKCKVSNKALPAPIEKTISKAKGQPREPQVCTLPPSRDELTKNQVSLWCLVKGFYPSDIAVEWESNGQPENNYKTTPPVLDSDGSFFLYSKLTVDKSRWQQGNVFSCSVMHEALHNRYTQKSLSLSP light: DIVMTQSPLSLPVTPGEPASISCRSSQSLVHSNRNTYLHWYQQKPGQAPRLLIYKVSNRFSGVPDRFSGSGSGTDFTLKISRVEAEDVGVYYCGQGTQVPYTFGQGTKLEIKRTVAAPSVFIFPPSDEQLKSGTASVVCLLNNFYPREAKVQWKVDNALQSGNSQESVTEQDSKDSTYSLSSTLTLSKADYEKHKVYACEVTHQGLSSPVTKSFNRGEC"
3,0.23,"CE115HA000 G100bY one-arm antibody (antibody, human IgG1, kappa, L234A L235A, N297A, name in Kabat numbering) heavy: QVQLVESGGGVVQPGRSLRLSCAASGFTFSNAWMHWVRQAPGKGLEWVAQIKAKSNNYATYYAESVKGRFTISRDDSKNSLYLQMNSLKTEDTAVYYCRYVHYGAYYYVDAWGQGTTVTVSSASTKGPSVFPLAPSSKSTSGGTAALGCLVKDYFPEPVTVSWNSGALTSGVHTFPAVLQSSGLYSLSSVVTVPSSSLGTQTYICNVNHKPSNTKVDKKVEPKSCDKTHTCPPCPAPEAAGGPSVFLFPPKPKDTLMISRTPEVTCVVVDVSHEDPEVKFNWYVDGVEVHNAKTKPREEQYASTYRVVSVLTVLHQDWLNGKEYKCKVSNKALPAPIEKTISKAKGQPREPQVYTLPPSRCELTKNQVSLSCAVKGFYPSDIAVEWESNGQPENNYKTTPPVLDSDGSFFLVSKLTVDKSRWQQGNVFSCSVMHEALHNHYTQKSLSLSPDYKDDDDK EPKSSDKTHTCPPCPAPELLGGPSVFLFPPKPKDTLMISRTPEVTCVVVDVSHEDPEVKFNWYVDGVEVHNAKTKPREEQYNSTYRVVSVLTVLHQDWLNGKEYKCKVSNKALPAPIEKTISKAKGQPREPQVCTLPPSRDELTKNQVSLWCLVKGFYPSDIAVEWESNGQPENNYKTTPPVLDSDGSFFLYSKLTVDKSRWQQGNVFSCSVMHEALHNRYTQKSLSLSP light: DIVMTQSPLSLPVTPGEPASISCRSSQSLVHSNRNTYLHWYQQKPGQAPRLLIYKVSNRFSGVPDRFSGSGSGTDFTLKISRVEAEDVGVYYCGQGTQVPYTFGQGTKLEIKRTVAAPSVFIFPPSDEQLKSGTASVVCLLNNFYPREAKVQWKVDNALQSGNSQESVTEQDSKDSTYSLSSTLTLSKADYEKHKVYACEVTHQGLSSPVTKSFNRGEC"
